Test results as given in doi:10.1101/685867 (bioRxiv, 2020).

Target: T1, S0_2.126 (synthetic construct (de novo design))
T1 chain: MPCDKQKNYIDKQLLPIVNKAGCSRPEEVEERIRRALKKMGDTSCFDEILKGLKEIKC
Test: SPR

B1: D25 IgG (antibody, V domains shown)
VH: QVQLVQSGAEVKKPGSSVMVSCQASGGPLRNYIINWLRQAPGQGPEWMGGIIPVLGTVHYAPKFQGRVTITADESTDTAYIHLISLRSEDTAMYYCATETALVVSTTYLPHYFDNWGQGTLVTVSS
VL: DIQMTQSPSSLSAAVGDRVTITCQASQDIVNYLNWYQQKPGKAPKLLIYVASNLETGVPSRFSGSGSGTDFSLTISSLQPEDVATYYCQQYDNLPLTFGGGTKVEIK
  Kd: ~0.05 nM
